Measurements taken from patent US20180346555A1 (Regeneron, published 2018).

T1: Hazel (Cor A 1, MyBiosource, Cat# MBS5304600) (Hazel, UniProt Q08407 2-160, limits assumed)
T1 construct: Bought reagent
T1 sequence (looked up): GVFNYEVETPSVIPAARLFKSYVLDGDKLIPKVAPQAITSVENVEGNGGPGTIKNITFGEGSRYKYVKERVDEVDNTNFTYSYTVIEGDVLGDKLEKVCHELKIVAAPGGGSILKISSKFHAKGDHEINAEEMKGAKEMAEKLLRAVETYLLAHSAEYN

T2: natural Bet v 1 (Betula verrucosa (Betula pendula), UniProt P15494 2-160)
T2 construct: Bought natural protein; also called nBet v 1
T2 chain: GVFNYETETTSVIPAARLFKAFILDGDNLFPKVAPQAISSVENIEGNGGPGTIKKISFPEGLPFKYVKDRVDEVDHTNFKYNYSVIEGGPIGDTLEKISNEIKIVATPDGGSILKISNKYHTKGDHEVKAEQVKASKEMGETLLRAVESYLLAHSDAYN


Columns and labels:
[1] = biological target: T1, Hazel (Cor A 1, MyBiosource, Cat# …); experiment: SPR Biacore 4000, mAb captured by anti-human Fc, 25 C;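 further: allergen analyte binding to captured, purified anti-Bet v 1 monoclonal antibodies, SPR in HEPES-buffered saline running buffer with EDTA and Tween-20 at pH 7.4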
Experimental: Equilibrium dissociation constants (KD) for different related allergens binding to purified anti-Bet v 1 monoclonal antibodies were determined using a real-time surface plasmon resonance biosensor (SPR-Biacore) on a Biacore 4000 instrument. All binding studies were performed in 10 mM HEPES, 150 mM NaCl, 3 mM EDTA, and 0.05% v/v surfactant Tween-20, pH 7.4 (HBS-ET) running buffer at 25° C. […] Association (kₐ) and dissociation (kd) rate constants were determined by fitting the real-time binding sensorgrams to a 1:1 binding model with mass transport limitation using Scrubber 2.0c curve-fitting software. Binding dissociation equilibrium constants (KD) and dissociative half-lives (t½) were calculated from the kinetic rate constants as:

natural Bet v 1 [2] = biological target: T2, natural Bet v 1; experiment: SPR Biacore 4000, mAb captured on anti-human Fc, 25C;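 further: purified anti-Bet v 1 mAbs probed with natural Bet v 1 in HBS-ET buffer (HEPES, NaCl, EDTA, Tween-20) at pH 7.4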
Experimental: (§1) Equilibrium dissociation constants (KD) for natural Bet v 1 binding to purified anti-Bet v 1 monoclonal antibodies were determined using a real-time surface plasmon resonance biosensor (SPR-Biacore) on a Biacore 4000 instrument. All binding studies were performed in 10 mM HEPES, 150 mM NaCl, 3 mM EDTA, and 0.05% v/v surfactant Tween-20, pH 7.4 (HBS-ET) running buffer at 25° C. and 37° C. […] Association (kₐ) and dissociation (kd) rate constants were determined by fitting the real-time binding sensorgrams to a 1:1 binding model with mass transport limitation using Scrubber 2.0c curve-fitting software. Binding dissociation equilibrium constants (KD) and dissociative half-lives (t½) were calculated from the kinetic rate constants as:

natural Bet v 1 [3] = biological target: T2, natural Bet v 1; experiment: SPR Biacore 4000, mAb captured on anti-human Fc, 37C;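 further: kinetic rate constants from SPR sensorgrams fitted to a 1:1 model with mass transport limitation, HBS-ET buffer pH 7.4, KD and t½ derived from the rate constants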
Experimental: as §1

100 nM Analyte Bound (RU) [1] [RU]	binding result [1]	Binder	also measured
1	no binding (tested: 100 nM)	H4H17015P (antibody, human IgG4, V domains shown, Fully human antibody with human IgG4 Fc (H4H prefix)) VH: QVQLQESGPGLVKPSQTLSLTCTVSGGSISSADHYWSWIRQQPGKGLEWIGYISYRGTTYYNPTLESRVSISVDTFKNQFSLMLHSVTVADTAVYYCAKVLQGLVRFRDYGFDVWGQGTTVTVSS VL: DIQLTQSPPFLSASVGDRVTITCWASQDISSYLAWYQQNPGKSPKLLIYDAFTLHTGVPSRFSGSGSGTEFTLTISSLQPEDFATFYCQHLYSFPFTFGPGTKVDIK	
0	no binding (tested: 100 nM)	H4H16991P (antibody, human IgG4, V domains shown, Fully human antibody with human IgG4 Fc (H4H prefix)) VH: QVQLVQSGAEVRKPGASVKVSCKASGYTFTGYYLHWVRQAPGQGLEWMGLINPNTGGTNFAQKFQGRVTMTRDSSISAAYMELSRLRSDDTAVYYCARQHWNRYFDNWGQGTLVTVSS VL: DIQMTQSPSTLSASVGDRVTITCRASQSVGNWLAWYQQKPGKAPKLLIQEASSIESGVPSRFSGSGSGTEFTLIVSSLQPDDFATYYCQQYNSYSWTFGHGTKVEIK	
0	no binding (tested: 100 nM)	H4H16987P (antibody, human IgG4 S228P, kappa, V domains shown, human IgG4 Fc; also called MAB4) VH: EVQLVESGGGLVQPGGSLRLSCAASGFTVSSNSMSWVRQAPGEGLEWVSVIFSGGITYYSDSVKGRFTISRHNSKNTLYLQMNSLRTEDTAVYYCARHSNWNFDAFDIWGQGTMVTVSS VL: DIQMTQSPSSLSASVGDRVTITCRASQSFDTYLNWYQQKPGKAPNLLIYATSSLQSGVPSRFSGSGSGTDFTLTISSLQPEDFGTYYCQQSYSIPYTFGQGTKLEIKR	
0	no binding (tested: 100 nM)	H4H16992P (antibody, human IgG4 S228P, kappa, V domains shown, human IgG4 Fc; also called REGN5713; MAB1) VH: QVQLQESGPGLVKPSETLSLTCSVSGGSITNYFWTWIRQSPGKGLEWIGYIYYSGGTNYNPSLKSRVTISIDTSKNQFSLNMNSVTAADTAVYYCAGSYYYGVDVWGQGTTVTVSS VL: EIVLTQSPATLSLSPGERATLSCRASQSIKSFLAWYRQKPGQAPRLLIYDASNRPTGIPARFSGSGSGTDFTLTINSLESEDFAVYFCQQRNNWPFTFGPGTKVDIKR	
0	no binding (tested: 100 nM)	H4H16960P (antibody, human IgG4, V domains shown, Fully human antibody with human IgG4 Fc (H4H prefix)) VH: QLQLQESGPGLVRPSETLSLTCTVSGGSISSSNYWWGWIRQPPGKGLEWIGSIYYSGITYYNPSLKSRVTISADTSKDQFSLKLRSVTAADTAVYYCAKLEWLRLDFWGQGTTVTVSS VL: DIQMTQSPSSVSASVGDRVTITCRASQGISSWLVWYQQKPGKVPKLLIYAASSLQSGVPLRFSGSGSGTDFTLTISSLQPEDFATYYCQQAKSFPLTFGQGTRLEIK	
		H4H17067P2 (antibody, human IgG4, V domains shown) VH: EVQLVQSGAEVKKPGESLKISCSGSGYRFTNYWIAWVRQMPGKGLEWMGLIHPDDSDIRYSPSFQGQVTFSVDKSINTAYLQWSSLKASDTAMYYCTRQDGILWSHNAWFDPWGQGTLVTVSS VL: not shown	100 nM natural Bet v 1 Bound (RU) (natural Bet v 1 [2]): 58 RU; Kd (natural Bet v 1 [2]): 3.56 nM; koff (natural Bet v 1 [2]): 0.000402 s⁻¹; kon (natural Bet v 1 [2]): 113000 M⁻¹ s⁻¹; t½ (natural Bet v 1 [2]): 29 min; 100 nM natural Bet v 1 Bound (RU) (natural Bet v 1 [3]): 80 RU; Kd (natural Bet v 1 [3]): 5.48 nM; koff (natural Bet v 1 [3]): 0.00147 s⁻¹; kon (natural Bet v 1 [3]): 268000 M⁻¹ s⁻¹; t½ (natural Bet v 1 [3]): 7.9 min
0	no binding (tested: 100 nM)	H4H17001P (antibody, human IgG4, V domains shown, Fully human antibody with human IgG4 Fc (H4H prefix)) VH: QVQLVESGGGLVKPGGSLRLSCAASGFTFSDYYMNWIRQAPGKGLEWISLISSSGSAIYYSDSVKGRFTISRDNARKSLYLQVNSLRAEDTAVYYCARDRGEWALGAYYYGLDVWGQGTTVTVSS VL: DIVMTQSPLSLPVTPGEPASISCRSSQSLLHSDGYNYLDWYLQKSGQSPQLLIYLGSNRASGVPDRFSGSGSGTDFTLKISRMEAEDVGVYYCMQALQTPYTFGQGTKLEIK	
0	no binding (tested: 100 nM)	H4H16967P (antibody, human IgG4, V domains shown, Fully human antibody with human IgG4 Fc (H4H prefix)) VH: QVQLVESGGGVVQPGRSLRLSCAASGFTFSSYGMHWFRQAPGKGLEWVGVIWSDGSDKKYADSVKGRFTISRDNSKNTLYLLMNSLRDDDTAVYHCAREGGFLYSSSSHFDYWGQGTLVTVSS VL: AIQMTQSPSSLSASVGDRVTITCRTSQGIRNDLGWYQQKPGKAPKLLIFAASSLQSGVPSRFSGSGSGTDFTLTISSLQPEDFAIYYCLQDYKYPFTFGGGTKVEIK	
0	no binding (tested: 100 nM)	H4H17028P (antibody, human IgG4, V domains shown, Fully human antibody with human IgG4 Fc (H4H prefix)) VH: QVQLVESGGGVVQPGRSLRLSCAASGFTFSRYAIHWVRQAPGKGLEWVAVISYDGDDKYYGDSVKGRFTISRDNSKTMVYLHMNSLRTEDTAVYYCAKDGYSLYGKDYFDYWGQGTLVTVSS VL: EIVLTQSPGTLPLSPGERATLSCRASQSITNSYLAWYQQKPDQAPRLLIYGASSRATGIPDRFSGSESGTDFTLTISRLEPEDFAVYYCQQYVRSPWTFGQGTKVEIK	
0	no binding (tested: 100 nM)	H4H16971P (antibody, human IgG4, V domains shown, Fully human antibody with human IgG4 Fc (H4H prefix)) VH: QVQLVESGGGVVQPGRSLRLSCAASGFTFSSYGLHWVRQAPGKGLEWVAVISDDGSYKFYADSMKGRFTISRDNSKNTLYLQMNSLRAEDTAVYYCAKDRGRSGWYYFDYWGQGTLVTVSS VL: not shown	
0	no binding (tested: 100 nM)	H4H16979P (antibody, human IgG4, V domains shown, Fully human antibody with human IgG4 Fc (H4H prefix)) VH: QVQLVQSGAEVKKPGASVKVSCKASGYTFIAYYLHWVRQAPGQGLEWMGLLNPYTGGSYYTQKFQGRVTMTRDTSIDTAYMELNSLRSDDTAIYYCARDKRSYYIPYAFEIWGQGTMVTVSS VL: not shown	
0	no binding (tested: 100 nM)	H4H17033P (antibody, human IgG4, V domains shown, Fully human antibody with human IgG4 Fc (H4H prefix)) VH: QVQLVQSGAEVKKPGASVKVSCKASGYTFAAHYMHWVRQAPGQGLEWMGWINTYTGGTNYGQKFQGRVTMTRDTSITTAYMELSRLRSDDTAVYYCARDRRNWNFVFEYWGQGTLVTVSS VL: DIQMTQSPSSLSASVGDRVTISCRASQNIKNYLNWYQQKPGKAPKLLIYEASNLQSGAPSRFSGSGSGTDFTLTISSLEPEDFATYYCQQSFSIPWTFGQGTKVEIK	
		H4H17045P2 (antibody, human IgG4, V domains shown) VH: EVQLVESGGGLVQPGVSLRLSCVASGFTFSNYDITWIRQIPGKGLEWVSRISGSGGSTYFADSVKGRFIISRDNSKNTVYMQMNSLRAEDSAVYYCARRDSVLFSMNSWLDPWGQGTLVTVSS VL: not shown	100 nM natural Bet v 1 Bound (RU) (natural Bet v 1 [2]): 69 RU; Kd (natural Bet v 1 [2]): 1.22 nM; koff (natural Bet v 1 [2]): 0.000149 s⁻¹; kon (natural Bet v 1 [2]): 122000 M⁻¹ s⁻¹; t½ (natural Bet v 1 [2]): 78 min; 100 nM natural Bet v 1 Bound (RU) (natural Bet v 1 [3]): 90 RU; Kd (natural Bet v 1 [3]): 1.86 nM; koff (natural Bet v 1 [3]): 0.000441 s⁻¹; kon (natural Bet v 1 [3]): 237000 M⁻¹ s⁻¹; t½ (natural Bet v 1 [3]): 26 min
0	no binding (tested: 100 nM)	H4H16950P (antibody, human IgG4, V domains shown, Fully human antibody with human IgG4 Fc (H4H prefix)) VH: QVQLVQSGAEVKKPGASVKVSCKTSGYTFTNYGITWVRQAPGQGLEWMGWISAYNGNTNYAQNVQGRVTMTTDTSTSTAYMEVRSLRSDDTAVYYCARRSSMLHFQHWGQGTLVTVSS VL: DIVMTQSPDSLAVSLGERATINCKSSQHVLYDSSNENYLAWFQQKPGQPPKLLIYWASTRESGVPDRFSGSGSGTDFTLTISSLQAEDVAVYYCQQYSSAPYTFGQGTKLEIK	
0	no binding (tested: 100 nM)	H4H17031P (antibody, human IgG4, V domains shown, Fully human antibody with human IgG4 Fc (H4H prefix)) VH: QVQLQQWGAGLLKPSETLSLTCVVYGESFGNYHWNWIRQSPGKRLEWIGEINQNGHTNYNPSLKSRVTISVDTSKIQFSLRLNSVTAADTAVYFCARGHNYVNSYFGLDVWGQGTTVTVSS VL: EIVMTQSPATLSVSPGERATLSCRTSQSVSISLAWYQRKPGQAPRLLIFGSSTRATGVPARFSGSGSGTEFTLTISSLQSEDFAVYYCQQYNNWPYTFGQGTKLEIK	
0	no binding (tested: 100 nM)	H4H17027P (antibody, human IgG4, V domains shown, Fully human antibody with human IgG4 Fc (H4H prefix)) VH: EVQLVESGGGLVQPGGSLRLSCAASGFTFRNYAMHWVRQAPGEGLEWVAAIYRNSDSIDYADSVKGRFTISRDNAKNSLYLQMNSLKTEDTALYYCAKDEGFLEYFDSWGQGTLVTVSS VL: EIVLTQSPGTLSLSPGERASLSCRASQSVSSSFLAWYQQKPGQAPRLLIYGVSSRFIGIPDRFSGGGSGTDFTLTITRLEPEDFAVYYCQQYGRSPWTFGQGTKVEIK	
0	no binding (tested: 100 nM)	H4H16943P (antibody, human IgG4, V domains shown, Fully human antibody with human IgG4 Fc (H4H prefix)) VH: EVQLVESGGGLVQPGGSLRLSCTASGFMSSMYWMSWVRQAPGKGLEWVSNIKQDGTEKNYVESVKGRFTISRDNAKNSLYLQINSLRGEDTAVYYCARDLYSSSSGYYYYGLDVWGQGTTVTVSS VL: DIVMTQSPLSLPVTPGEPASISCRSSQSLLHSNKYNYLDWYLQKPGQSPQLLIYLSSNRASGVPDRFSGSGSGTEFTLKISRVEAEDVGIYYCMQALHTPLTFGGGTKVEIK	
-1		H4H16946P (antibody, human IgG4, V domains shown, Fully human antibody with human IgG4 Fc (H4H prefix)) VH: EVQLVESGGGLVQPGGSLRLSCVASGFTFSNYDMNWVRQAPGEGLEWISYISYSDHNIYYIDSVKGRFTISRDNAKNSLYLQMNSLRAEDTAIYYCAREALASSSFDYWGQGTLVTVSS VL: EIVMTQSPATLSVSPGERVTLSCRASQSVSGNLAWYQQKPGQAPRLLIYSASTGATGVPARFSGSGSGTEFTLTISSLQSEDFALYYCQQYNKWPRTIGQGTKVEIK	
